Results reported in US20140010832A1 (EPFL TTO, published 2014).

B1: human VEGF-A121-PlGF2123-144 (ligand)
chain: APMAEGGGQNHHEVVKFMDVYQRSYCHPIETLVDIFQEYPDEIEYIFKPSCVPLMRCGGCCNDEGLECVPTEESNITMQIMRIKPHQGQHIGEMSFLQHNKCECRPKKDRARQERRRPKGRGKRRREKQRPTDCHLCDKPRR
B2: human PDGF-BB-PlGF2123-144 (ligand)
chain: SLGSLTIAEPAMIAECKTRTEVFEISRRLIDRTNANFLVWPPCVEVQRCSGCCNNRNVQCRPTQVQLRPVQVRKIEIVRKKPIFKKATVTLEDHLACKCETVAAARPVTRRRPKGRGKRRREKQRPTDCHL
B3: human BMP-2-PlGF2123-144* (ligand)
chain: QAKHKQRKRLKSSCKRHPLYVDFSDVGWNDWIVAPPGYHAFYCHGECPFPLADHLNSTNHAIVQTLVNSVNSKIPKACCVPTELSAISMLYLDENEKVVLKNYQDMVVEGCGCRRRPKGRGKRRREKQRPTDSHL
notes: Inserted at the C-terminus of BMP-2
B4: PlGF2 (ligand)
chain: PAVPPQQWALSAGNGSSEVEVVPFQEVWGRSYCRALERLVDVVSEYPSEVEHMFSPSCVSLLRCTGCCGDENLHCVPVETANVTMQLLKIRSGDRPSYVELTFSQHVRCECRPLREKMKPERRRPKRGKRRREKQRPTDCHLCGDAVPRR
notes: also called PIGF-2; placenta growth factor 2

Each binder was assayed against Collagen I (assay: ELISA; cytokine coated, ECM protein 0.02 to 320 nM, KD by non-linear fit).
Sequence of Collagen I (P02452 162-1218, chain 1 of 2): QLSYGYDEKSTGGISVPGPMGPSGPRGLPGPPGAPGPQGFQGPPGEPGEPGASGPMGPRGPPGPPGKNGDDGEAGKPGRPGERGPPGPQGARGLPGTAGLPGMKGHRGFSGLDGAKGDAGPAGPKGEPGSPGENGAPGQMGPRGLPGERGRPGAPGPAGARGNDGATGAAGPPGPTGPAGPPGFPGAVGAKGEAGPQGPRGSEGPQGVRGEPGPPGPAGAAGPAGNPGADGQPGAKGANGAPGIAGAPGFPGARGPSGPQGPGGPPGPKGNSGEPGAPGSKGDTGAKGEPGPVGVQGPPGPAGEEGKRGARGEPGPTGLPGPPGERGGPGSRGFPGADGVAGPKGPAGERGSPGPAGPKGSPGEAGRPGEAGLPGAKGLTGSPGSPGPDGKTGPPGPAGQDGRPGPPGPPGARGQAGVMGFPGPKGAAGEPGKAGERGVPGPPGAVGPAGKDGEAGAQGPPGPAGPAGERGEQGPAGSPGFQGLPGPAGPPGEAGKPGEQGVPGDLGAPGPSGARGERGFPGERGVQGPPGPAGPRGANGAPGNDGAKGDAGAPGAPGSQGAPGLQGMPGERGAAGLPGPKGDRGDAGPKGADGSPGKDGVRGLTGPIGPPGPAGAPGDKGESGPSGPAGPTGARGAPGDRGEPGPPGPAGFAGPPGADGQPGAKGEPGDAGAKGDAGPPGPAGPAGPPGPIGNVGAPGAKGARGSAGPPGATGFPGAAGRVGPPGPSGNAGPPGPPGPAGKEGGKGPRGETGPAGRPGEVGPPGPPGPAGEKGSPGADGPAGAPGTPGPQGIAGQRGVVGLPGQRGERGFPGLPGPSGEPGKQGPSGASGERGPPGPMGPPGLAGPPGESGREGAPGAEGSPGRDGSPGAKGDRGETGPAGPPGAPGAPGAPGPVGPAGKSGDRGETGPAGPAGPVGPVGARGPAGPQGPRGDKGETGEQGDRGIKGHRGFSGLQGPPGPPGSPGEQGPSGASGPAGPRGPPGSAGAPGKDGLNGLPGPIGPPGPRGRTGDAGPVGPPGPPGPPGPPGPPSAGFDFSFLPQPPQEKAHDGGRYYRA
Sequence of Collagen I (P08123 80-1119, chain 2 of 2, further chain): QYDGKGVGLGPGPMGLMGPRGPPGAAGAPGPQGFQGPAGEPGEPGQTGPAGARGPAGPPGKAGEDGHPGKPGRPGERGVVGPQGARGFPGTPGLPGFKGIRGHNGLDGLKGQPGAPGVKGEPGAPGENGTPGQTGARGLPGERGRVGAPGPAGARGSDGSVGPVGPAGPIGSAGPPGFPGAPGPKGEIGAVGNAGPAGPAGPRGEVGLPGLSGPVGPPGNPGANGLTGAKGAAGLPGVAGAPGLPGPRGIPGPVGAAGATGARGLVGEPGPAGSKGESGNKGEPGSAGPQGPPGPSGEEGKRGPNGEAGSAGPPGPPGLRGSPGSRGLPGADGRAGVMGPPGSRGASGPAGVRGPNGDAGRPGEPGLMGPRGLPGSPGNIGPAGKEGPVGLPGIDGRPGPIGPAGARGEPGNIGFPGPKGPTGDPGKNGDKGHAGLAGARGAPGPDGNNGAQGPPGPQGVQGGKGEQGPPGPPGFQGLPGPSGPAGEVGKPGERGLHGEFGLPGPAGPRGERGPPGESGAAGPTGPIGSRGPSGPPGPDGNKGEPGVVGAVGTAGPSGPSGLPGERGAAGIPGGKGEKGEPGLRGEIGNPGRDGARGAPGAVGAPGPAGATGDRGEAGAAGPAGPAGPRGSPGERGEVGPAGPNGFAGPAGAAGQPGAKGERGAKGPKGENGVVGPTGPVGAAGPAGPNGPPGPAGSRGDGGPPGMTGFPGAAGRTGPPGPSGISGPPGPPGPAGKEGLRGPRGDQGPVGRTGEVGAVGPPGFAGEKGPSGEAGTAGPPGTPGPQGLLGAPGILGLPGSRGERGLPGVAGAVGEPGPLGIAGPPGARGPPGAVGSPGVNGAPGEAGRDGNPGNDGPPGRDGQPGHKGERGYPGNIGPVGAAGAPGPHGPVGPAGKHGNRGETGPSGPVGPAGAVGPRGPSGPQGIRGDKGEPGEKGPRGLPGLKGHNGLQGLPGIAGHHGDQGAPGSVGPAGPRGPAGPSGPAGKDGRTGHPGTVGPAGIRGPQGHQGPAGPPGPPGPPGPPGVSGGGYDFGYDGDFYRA
Work on B1 yielded a Kd of 124 nM.
For B2, the Kd was 96.3 nM.
In the case of B3, the Kd is reported as 102 nM.
B4 was tested, and the Kd was 126 nM.
